Source: patent US20160297889A1 (TORAY INDUSTRIES, published 2016)
Where a chain is given by its changes, count along the chain named.

T1: CAPRIN-1 protein expressed on the membrane surface of human cancer cells (human, UniProt Q14444 2-709)
T1 sequence (looked up): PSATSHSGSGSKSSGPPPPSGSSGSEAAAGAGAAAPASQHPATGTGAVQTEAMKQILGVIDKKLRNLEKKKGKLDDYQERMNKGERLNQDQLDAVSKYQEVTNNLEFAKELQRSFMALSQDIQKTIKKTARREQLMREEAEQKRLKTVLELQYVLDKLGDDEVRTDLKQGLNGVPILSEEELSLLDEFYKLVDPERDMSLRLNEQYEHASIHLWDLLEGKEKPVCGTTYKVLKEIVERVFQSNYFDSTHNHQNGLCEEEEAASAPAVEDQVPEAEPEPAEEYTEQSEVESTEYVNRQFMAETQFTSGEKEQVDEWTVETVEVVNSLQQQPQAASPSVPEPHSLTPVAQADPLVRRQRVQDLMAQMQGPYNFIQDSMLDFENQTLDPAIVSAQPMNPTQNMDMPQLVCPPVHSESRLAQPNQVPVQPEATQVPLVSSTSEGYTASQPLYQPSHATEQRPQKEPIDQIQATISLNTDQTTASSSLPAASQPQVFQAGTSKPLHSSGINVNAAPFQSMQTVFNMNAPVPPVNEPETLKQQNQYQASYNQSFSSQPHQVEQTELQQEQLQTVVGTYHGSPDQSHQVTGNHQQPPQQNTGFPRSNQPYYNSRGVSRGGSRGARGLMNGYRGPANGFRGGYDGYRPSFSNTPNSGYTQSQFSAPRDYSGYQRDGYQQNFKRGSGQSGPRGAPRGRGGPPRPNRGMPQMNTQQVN

B1: humanized antibody #0 (antibody, V domains shown)
VH: EVQLVESGGGLVQPGGSLRLSCAASGFSLSSHSLGWVRQAPGKGLEWIGDIRSGGSAYYANWAKGRFTISRDNSKNTLYLQMNSLRAEDTAVYFCTRTNGPSDLTNRLDLWGQGTLVTVSS
VL: AIQMTQSPSSLSASVGDRVTINCQASQSLYNNENLAWFQQKPGKAPKRLIYGASTLASGVSSRFSGSGSGTDFTLTISSLQPEDFAIYYCLGEFSCGSADCFAFGGGTKVEIK
B2: humanized antibody #9 (antibody, V domains shown)
VH: B1 VH with V2Q, Q3S, F94Y
VL: B1 VL with A1D, Q3V, M4L, A45V, D72E, P82C
B3: humanized antibody #1 (antibody, V domains shown)
VH: B1 VH with F94Y
VL: B1 VL
B4: humanized antibody #5 (antibody, V domains shown)
VH: B1 VH
VL: B1 VL with A1E, I2Q, Q3V, M4L, A45V, D72E, S79N
B5: humanized antibody #3 (antibody, V domains shown)
VH: B1 VH with F94Y
VL: B1 VL with A1E, I2Q, Q3V, M4L, A45V, D72E, S79N
B6: humanized antibody #4 (antibody, V domains shown)
VH: B1 VH
VL: B1 VL with A1E, Q3V, M4L, A45V, D72E, S79N, I87T

Biological target: T1, CAPRIN-1 protein expressed on the …
Assay: cell-based or functional assay

| Binder | ADCC cytotoxic activity (51Cr release) on 22Rv1 [%] | ADCC cytotoxic activity (51Cr release) on A-673 [%] | ADCC cytotoxic activity (51Cr release) on BT-474 [%] | ADCC cytotoxic activity (51Cr release) on Caki-2 [%] | ADCC cytotoxic activity (51Cr release) on FaDu [%] | ADCC cytotoxic activity (51Cr release) on G-361 [%] | ADCC cytotoxic activity (51Cr release) on HEC-1-A [%] | ADCC cytotoxic activity (51Cr release) on HT-29 [%] | ADCC cytotoxic activity (51Cr release) on HT-1080 [%] | ADCC cytotoxic activity (51Cr release) on HT-1376 [%] |
| --- | --- | --- | --- | --- | --- | --- | --- | --- | --- | --- |
| B1 | ≥ 38 | ≥ 40 | ≥ 46 | ≥ 26 | ≥ 35 | ≥ 15 | ≥ 40 | ≥ 35 | ≥ 20 | ≥ 28 |
| B2 | ≥ 38 | ≥ 40 | ≥ 46 | ≥ 26 | ≥ 35 | ≥ 15 | ≥ 40 | ≥ 35 | ≥ 20 | ≥ 28 |
| B3 | ≥ 38 | ≥ 40 | ≥ 46 | ≥ 26 | ≥ 35 | ≥ 15 | ≥ 40 | ≥ 35 | ≥ 20 | ≥ 28 |
| B4 | ≥ 45 | ≥ 46 | ≥ 50 | ≥ 33 | ≥ 40 | ≥ 21 | ≥ 45 | ≥ 40 | ≥ 25 | ≥ 40 |
| B5 | ≥ 45 | ≥ 46 | ≥ 50 | ≥ 33 | ≥ 40 | ≥ 21 | ≥ 45 | ≥ 40 | ≥ 25 | ≥ 40 |
| B6 | ≥ 45 | ≥ 46 | ≥ 50 | ≥ 33 | ≥ 40 | ≥ 21 | ≥ 45 | ≥ 40 | ≥ 25 | ≥ 40 |

Same assay, conditions: not given

| Binder | ADCC cytotoxic activity (51Cr release) on Hep3B [%] | ADCC cytotoxic activity (51Cr release) on IM-9 [%] | ADCC cytotoxic activity (51Cr release) on MDA-MB-361 [%] | ADCC cytotoxic activity (51Cr release) on NCI-H2452 [%] | ADCC cytotoxic activity (51Cr release) on NCI-N87 [%] | ADCC cytotoxic activity (51Cr release) on NT/D1 [%] | ADCC cytotoxic activity (51Cr release) on OCI-AML5 [%] | ADCC cytotoxic activity (51Cr release) on OE33 [%] | ADCC cytotoxic activity (51Cr release) on Panc10.5 [%] | ADCC cytotoxic activity (51Cr release) on QG56 [%] |
| --- | --- | --- | --- | --- | --- | --- | --- | --- | --- | --- |
| B1 | ≥ 21 | ≥ 27 | ≥ 40 | ≥ 31 | ≥ 34 | ≥ 25 | ≥ 15 | ≥ 30 | ≥ 24 | ≥ 38 |
| B2 | ≥ 21 | ≥ 27 | ≥ 40 | ≥ 31 | ≥ 34 | ≥ 25 | ≥ 15 | ≥ 30 | ≥ 24 | ≥ 38 |
| B3 | ≥ 21 | ≥ 27 | ≥ 40 | ≥ 31 | ≥ 34 | ≥ 25 | ≥ 15 | ≥ 30 | ≥ 24 | ≥ 38 |
| B4 | ≥ 25 | ≥ 30 | ≥ 45 | ≥ 39 | ≥ 38 | ≥ 30 | ≥ 18 | ≥ 33 | ≥ 30 | ≥ 42 |
| B5 | ≥ 25 | ≥ 30 | ≥ 45 | ≥ 39 | ≥ 38 | ≥ 30 | ≥ 18 | ≥ 33 | ≥ 30 | ≥ 42 |
| B6 | ≥ 25 | ≥ 30 | ≥ 45 | ≥ 39 | ≥ 38 | ≥ 30 | ≥ 18 | ≥ 33 | ≥ 30 | ≥ 42 |

Same assay, conditions: not given

| Binder | ADCC cytotoxic activity (51Cr release) on RD-ES [%] | ADCC cytotoxic activity (51Cr release) on RPM11666 [%] | ADCC cytotoxic activity (51Cr release) on Ramos [%] | ADCC cytotoxic activity (51Cr release) on SKOV3 [%] | ADCC cytotoxic activity (51Cr release) on T24 [%] | ADCC cytotoxic activity (51Cr release) on TGBC14TKB [%] | ADCC cytotoxic activity (51Cr release) on TT [%] | ADCC cytotoxic activity (51Cr release) on U-87MG [%] |
| --- | --- | --- | --- | --- | --- | --- | --- | --- |
| B1 | ≥ 31 | ≥ 30 | ≥ 15 | ≥ 27 | ≥ 30 | ≥ 25 | ≥ 30 | ≥ 24 |
| B2 | ≥ 31 | ≥ 30 | ≥ 15 | ≥ 27 | ≥ 30 | ≥ 25 | ≥ 30 | ≥ 24 |
| B3 | ≥ 31 | ≥ 30 | ≥ 15 | ≥ 27 | ≥ 30 | ≥ 25 | ≥ 30 | ≥ 24 |
| B4 | ≥ 40 | ≥ 36 | ≥ 18 | ≥ 31 | ≥ 33 | ≥ 30 | ≥ 35 | ≥ 29 |
| B5 | ≥ 40 | ≥ 36 | ≥ 18 | ≥ 31 | ≥ 33 | ≥ 30 | ≥ 35 | ≥ 29 |
| B6 | ≥ 40 | ≥ 36 | ≥ 18 | ≥ 31 | ≥ 33 | ≥ 30 | ≥ 35 | ≥ 29 |
